Here are results for two molecules from patent publication US20230203185A1 (ECO ANIMAL HEALTH, published 2023).

The target in assay [1] is T1, native membrane bound porcine CD163 on primary porcine alveolar macrophages (porcine, UniProt Q2VL90 47-1115).
T1 construct: also called PAM CD163-WT; pPAM
T1 sequence: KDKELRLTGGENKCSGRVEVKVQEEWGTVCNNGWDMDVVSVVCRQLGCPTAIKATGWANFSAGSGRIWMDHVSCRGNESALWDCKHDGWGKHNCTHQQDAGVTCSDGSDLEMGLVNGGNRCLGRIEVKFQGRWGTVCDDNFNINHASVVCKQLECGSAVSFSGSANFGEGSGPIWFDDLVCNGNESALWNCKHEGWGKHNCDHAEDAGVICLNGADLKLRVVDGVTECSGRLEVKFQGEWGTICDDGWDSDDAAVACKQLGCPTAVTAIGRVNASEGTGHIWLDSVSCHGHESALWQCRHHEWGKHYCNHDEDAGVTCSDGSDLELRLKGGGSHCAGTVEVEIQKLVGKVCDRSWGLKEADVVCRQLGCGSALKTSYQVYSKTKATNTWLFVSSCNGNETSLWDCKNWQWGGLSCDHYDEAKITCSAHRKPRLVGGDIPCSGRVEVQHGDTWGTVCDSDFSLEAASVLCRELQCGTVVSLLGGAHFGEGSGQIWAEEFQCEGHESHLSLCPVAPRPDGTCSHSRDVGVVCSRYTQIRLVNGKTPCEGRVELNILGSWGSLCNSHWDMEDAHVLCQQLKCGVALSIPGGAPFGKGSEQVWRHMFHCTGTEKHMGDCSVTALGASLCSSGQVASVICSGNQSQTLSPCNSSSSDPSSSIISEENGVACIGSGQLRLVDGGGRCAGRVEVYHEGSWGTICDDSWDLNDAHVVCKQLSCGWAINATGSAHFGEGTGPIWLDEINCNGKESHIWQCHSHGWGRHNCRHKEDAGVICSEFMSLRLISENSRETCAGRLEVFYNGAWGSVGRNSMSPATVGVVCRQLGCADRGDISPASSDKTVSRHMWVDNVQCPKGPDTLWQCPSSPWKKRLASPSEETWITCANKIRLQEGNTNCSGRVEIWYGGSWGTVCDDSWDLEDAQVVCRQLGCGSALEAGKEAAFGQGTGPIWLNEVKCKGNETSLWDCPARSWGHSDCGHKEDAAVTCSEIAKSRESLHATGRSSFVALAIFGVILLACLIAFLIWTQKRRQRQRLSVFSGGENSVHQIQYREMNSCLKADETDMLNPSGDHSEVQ
Description: flow cytometry, PAM CD163-WT, RT. (In general: A flow cytometer gives signals particle by particle.)

The target in assay [2] is T2, pCD163-SRCR4-7-huFc (porcine, UniProt Q2VL90 372-818, limits assumed).
T2 construct: also called pCD163:SRCR4-7-Fc; pCD163-SRCR4-7-Fc; not shown: human Fc (huFc)
Description: ELISA, periplasmic extract on coated antigen. Background: An ELISA detects its analyte on a solid surface through an enzyme-linked reagent.

The target of a further assay is T3, pCD163-SRCR1-9-huFc (porcine, UniProt Q2VL90 47-1028, limits assumed).
T3 construct: also called pCD163:SRCR1-9-Fc; pCD163SRCR1-9-Fc; not shown: human Fc (huFc)
T3 sequence: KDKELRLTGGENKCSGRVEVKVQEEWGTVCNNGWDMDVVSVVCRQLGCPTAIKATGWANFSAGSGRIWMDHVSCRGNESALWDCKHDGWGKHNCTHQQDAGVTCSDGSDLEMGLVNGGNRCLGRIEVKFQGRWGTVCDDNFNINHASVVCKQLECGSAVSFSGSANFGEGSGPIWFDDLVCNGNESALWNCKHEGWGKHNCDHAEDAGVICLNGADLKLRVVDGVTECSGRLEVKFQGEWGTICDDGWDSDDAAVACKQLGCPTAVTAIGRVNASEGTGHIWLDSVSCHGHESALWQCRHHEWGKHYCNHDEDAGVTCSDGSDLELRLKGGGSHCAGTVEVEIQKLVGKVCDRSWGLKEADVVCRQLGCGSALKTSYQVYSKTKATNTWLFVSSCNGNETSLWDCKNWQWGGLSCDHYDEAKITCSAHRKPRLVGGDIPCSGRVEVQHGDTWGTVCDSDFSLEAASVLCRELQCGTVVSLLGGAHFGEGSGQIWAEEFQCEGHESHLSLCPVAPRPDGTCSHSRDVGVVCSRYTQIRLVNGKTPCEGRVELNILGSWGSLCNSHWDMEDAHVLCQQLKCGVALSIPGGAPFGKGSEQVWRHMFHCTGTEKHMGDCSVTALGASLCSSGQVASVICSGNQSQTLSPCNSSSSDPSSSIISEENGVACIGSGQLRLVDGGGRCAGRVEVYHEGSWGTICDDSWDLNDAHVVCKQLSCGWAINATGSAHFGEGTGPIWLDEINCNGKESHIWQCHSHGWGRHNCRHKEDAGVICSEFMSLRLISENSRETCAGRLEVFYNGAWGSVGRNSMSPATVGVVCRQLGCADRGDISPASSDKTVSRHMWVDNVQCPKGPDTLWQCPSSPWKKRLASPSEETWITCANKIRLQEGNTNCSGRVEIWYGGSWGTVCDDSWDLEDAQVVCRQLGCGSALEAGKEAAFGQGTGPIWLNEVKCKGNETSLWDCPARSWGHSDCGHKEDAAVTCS
Description: ELISA, periplasmic extract on coated antigen.

For assay [3], the target named is T2, pCD163-SRCR4-7-huFc. Description: SPR (Biacore 3000), antigen amine-coupled on CM5, VHH injected, pH 7.4. As to the method: To assess the affinity of selected purified clones to pCD163, pCD163-SRCR1-9-huFc or pCD163-SRCR4-7-huFc proteins were coated by amine coupling on a CM5 sensor ship (GE Healthcare). Surface plasmon resonance (SPR) (Biacore 3000, GE Healthcare) was used to determine the binding kinetics of selected single domain antibodies at pH7.4. Approximately 2000 RU of pCD163-SRCR1-9-huFc or pCD163-SRCR4-7-huFc, proteins at 20 or 30 µg/ml in Acetate buffer pH 5.0 or pH 5.5 were immobilized onto a CM5 chip using the standard amine coupling procedure.
1x HBS-EP pH 7.4, were utilized as a running buffer during binding kinetic measurements. Purified VHH were injected at 3-fold dilution (300 nM; 100 nM; 33 nM; 11 nM; 3.7 nM; 1.2 nM; 0.4 nM; 0 nM), for 120 s, at a flow rate of 30 µl/min. RU levels were restored to base levels after regeneration with 10 µl of 10 mM NaOH / 1 M NaCl and 10 µl of 10 mM Glycine pH 1.5 between samples. Fitting 1:1 binding with mass transfer was applied to the set sample curves using the simultaneous fitting option of the BIAevaluation software to calculate the kinetic constants of the antibody-antigen interactions including association rate (ka), dissociation rate (kd) and affinity (KD). Curves were removed from the fitting after visual examination of the residuals and considering the value of Chi2: a minimum of 4 curves were considered for the simultaneous fitting.
A general note: In SPR one partner is held on a chip, and binding of the other changes the refractive index at the surface.

B1: VHH 017 (3D03) (VHH)
VHH: QLQLVESGGGLVQPGGSLRLSCAASGFTLDDYTIGWFRQAPGKEREGVSCINSITSNTYYADSVKGRFTISRDNAKNTVYLQMNSLTAEDTAIYYCAADSGLFSGSSCLKYRAMRFGSWGQGTQVTVSS
notes: Llama single domain antibody; also called 29(#17); VHCDR3 29(#17); not shown: tags: c-myc tag in periplasmic extract (ELISA, FACS); FLAG and His tags in purified VHH (SPR, infection assays)
What is called Kd is the free concentration of one partner at which half of the binding sites on the other are occupied at equilibrium, for simple one-to-one binding. The low end stands for higher affinity, the high end for lower affinity. By koff is commonly meant the rate constant with which the complex falls apart. Read a low koff as slow dissociation. The term kon denotes a measure of how fast the partners come together. A low value points to slower complex formation. As to B1, in assay [1], the “% Binding” value was 37.2% and the MFI was 2290 MFI. In addition, the “O.D. 450” value with pCD163-SRCR4-7-huFc [2] was determined as 0.116 O.D. 450. Also, the “O.D. 450” value in the assay with pCD163-SRCR1-9-huFc worked out at 0.137 O.D. 450. In the assay with pCD163-SRCR4-7-huFc [3], this molecule yielded a Kd of 22.6 nM, a koff of 0.00345 s⁻¹ and a kon of 153000 M⁻¹ s⁻¹.

B2: VHH 012 (2C07) (VHH)
VHH: QLQLVESGGGLVQAGGSLRLSCVASGRTFSRYAMGWFRQAPGKEREFVAAIAWSTGSTYYANSVKGRFAISGDNAKNTVYLQMNSLKPEDTAVYYCAAETRYCSGFGCLDPRTYGSWGQGTQVTVSS
notes: Llama single domain antibody; also called 41(#12); VHCDR3 41(#12); not shown: tags: c-myc tag in periplasmic extract (ELISA, FACS); FLAG and His tags in purified VHH (SPR, infection assays)
Regarding B2, in assay [1], the “% Binding” value was 91.5% and the MFI was determined as 17700 MFI. For the same molecule, in the assay with pCD163-SRCR4-7-huFc [2], the “O.D. 450” value was found to be 3.14 O.D. 450. Moreover, in the assay with pCD163-SRCR1-9-huFc, the “O.D. 450” value turned out to be 0.535 O.D. 450. Besides, in the assay with pCD163-SRCR4-7-huFc [3], the equilibrium dissociation constant (Kd) came to 1.51 nM, the dissociation rate constant (koff) was found to be 0.00426 s⁻¹ and the association rate constant (kon) stood at 2.83e+06 M⁻¹ s⁻¹.
